Measurements reported in article PMC11082194, “A common polymorphism in the Intelectin-1 gene influences mucus plugging in severe asthma” (Nature Communications, 2024).

Key:
[1] = biological target: purified human airway mucins; test: ELISA; purified mucins coated on NUNC Maxisorp plate overnight at 4 °C, 20 μg/mL, carbonate-bicarbonate buffer pH 9.6; FLAG-ITLN-1 10 μg/mL for 2 hours in binding buffer B (TBS, 3 mM CaCl3, 1% BSA, 0.05% Tween-20, 50 mM EDTA); anti-FLAG HRP, absorbance 450 nm; also with galactose 100 mM, heparin 150 μg/mL or dextran sulfate 150 μg/mL
[2] = biological target: T1, FLAG-tagged recombinant ITLN-1 (human, UniProt Q8WWA0 19-298); test: ELISA; C-terminal recombinant peptide coated on NUNC Maxisorp plate overnight at 4 °C, 20 μg/mL, carbonate-bicarbonate buffer pH 9.6; FLAG-ITLN-1 10 μg/mL for 2 hours in binding buffer A (TBS, 3 mM CaCl3, 1% BSA, 0.05% Tween-20); anti-FLAG HRP, absorbance 450 nm; also with heparin 150 μg/mL; settings: both partners purified
T1 construct: intelectin-1 (ITLN-1), human, recombinant; also called intelectin-1; recombinant human ITLN-1 protein; source: bought: Sigma, SRP8047

Row | Molecule | percent decrease of binding with dextran sulfate (150 μg/mL) [1] [%] | percent decrease of binding with heparin (150 μg/mL) [1] [%] | binding result [2]
1 | FLAG-tagged recombinant ITLN-1 (from UniProt Q8WWA0 19-298) (natural protein) | 74 | 51.9 | 
2 | MUC5AC C-terminal recombinant peptide (AA5568-AA5654) (domain or fragment, human, UniProt P98088 5568-5654, looked up, MUC5AC mucin, human, C-terminal recombinant peptide, residues 5568-5654; also called C-terminal MUC5AC; C-terminal peptide of MUC5AC; source: bought: Mybiosource, #MBS2009104) YSLEGNTVEHRCQCCQELRTSLRNVTLHCTDGSSRAFSYTEVEECGCMGRRCPAPGDTQHSEEAEPEPSQEAESGSWERGVPVSPMH |  |  | binds
